What was measured:
[1] = molecular target: T1, human complement C2 zymogen (human, UniProt P06681 21-752); test: SPR kinetics, captured antibody, analyte huC2 20 mM Ca^2+ (so in the source), pH 7.3
T1 construct: also called huC2; human C2
T1 sequence: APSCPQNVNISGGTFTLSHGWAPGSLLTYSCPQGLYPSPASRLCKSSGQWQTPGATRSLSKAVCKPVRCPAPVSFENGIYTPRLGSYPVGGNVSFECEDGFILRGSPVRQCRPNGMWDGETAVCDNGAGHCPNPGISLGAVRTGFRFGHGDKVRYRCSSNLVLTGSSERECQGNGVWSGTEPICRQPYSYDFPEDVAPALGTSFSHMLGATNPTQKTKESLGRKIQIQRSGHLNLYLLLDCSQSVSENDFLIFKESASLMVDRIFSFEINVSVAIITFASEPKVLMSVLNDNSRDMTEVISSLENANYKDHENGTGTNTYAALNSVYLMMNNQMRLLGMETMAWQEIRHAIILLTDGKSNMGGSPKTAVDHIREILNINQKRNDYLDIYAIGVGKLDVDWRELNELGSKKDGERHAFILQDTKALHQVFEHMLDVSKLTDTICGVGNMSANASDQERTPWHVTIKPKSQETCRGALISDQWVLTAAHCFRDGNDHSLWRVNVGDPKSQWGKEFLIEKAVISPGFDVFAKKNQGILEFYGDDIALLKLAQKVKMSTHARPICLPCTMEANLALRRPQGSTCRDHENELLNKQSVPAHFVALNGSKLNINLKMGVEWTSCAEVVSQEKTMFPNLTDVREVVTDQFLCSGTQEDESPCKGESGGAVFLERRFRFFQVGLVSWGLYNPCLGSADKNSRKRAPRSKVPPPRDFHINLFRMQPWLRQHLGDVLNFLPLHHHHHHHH
Description: (§1) Surface plasmon resonance (SPR, Biacore) was used for all binding affinity analyses. In brief, goat anti-human IgG was directly immobilised onto the carboxymethyl dextran surface of CM5 sensorchips to approximately 12,000 RU using standard NHS/EDC chemistry at pH 5. The immobilised antibody surface was pre-conditioned with ten injections of polyclonal human IgG (Privigen 60 s) prepared at 1 μg/mL. Ligands (anti-C2 mAbs) were captured at the beginning of each cycle as described below. An adjacent spot or flow cell in which only Polyclonal IgG was capture was used as a reference surface. The goat anti-human IgG Fc antibody surface was regenerate in 100 mM H3PO4, injected for 45 seconds at the end of each cycle. Experiments were performed at 37° C. and the flow rate of each experiment was kept constant at 30 μL/min.
(§2) Calcium concentrations ranged from zero (i.e. no added calcium, control) to near physiological levels (0.02, 0.2 and 2 mM CaCl₂.2H₂O, MW 147.02 Da).

[2] = molecular target: T1, human complement C2 zymogen; test: SPR steady state, captured antibody, analyte huC2 20 mM Ca^2+ (so in the source), pH 6.0
Description: as §1
(§3) Sensogram data was double-referenced against a reference anti-IgG surface (i.e. minus anti-C2 mAb) and blank buffer injections obtained within each experiment. The binding data was fit to 1:1 (kinetic or steady-state) model using local Rmax and null refraction index (RI=0) when appropriate. Buffers and solutions were filtered (0.22 μm) prior to use.
as §2

[3] = molecular target: T1, human complement C2 zymogen; test: SPR kinetics, captured antibody, analyte huC2 200 mM Ca^2+ (so in the source), pH 7.3
Description: as §1, §2

[4] = molecular target: T1, human complement C2 zymogen; test: SPR kinetics, captured antibody, analyte huC2 2000 mM Ca^2+ (so in the source), pH 7.3
Description: as §1, §2

[5] = molecular target: T1, human complement C2 zymogen; test: SPR steady state, captured antibody, analyte huC2 200 mM Ca^2+ (so in the source), pH 6.0
Description: as §1, §3, §2

[6] = molecular target: T2, cynomolgus monkey FcRn/β2m (cynomolgus monkey, UniProt Q8SPV9 24-297; Q8SPW0 21-119, limits assumed); test: SPR, immobilised antibody, cyno FcRn/b2m analyte, pH 6.0; pH 6.0
T2 construct: injected in solution over immobilised antibody; also called Cyno FcRn/β2m
Description: Anti-C2 mAbs (1 μg/mL at pH 5) were immobilized on a carboxylmethyldextran (CM5) sensorchip surface using standard EDC/NHS chemistry. Human and Cyno FcRn/β2m (40 μM) were prepared in running buffer (10 mM HEPES, 150 mM NaCl, 10 mM MES adjusted to either pH 6 or pH 7.3) and injected on the immobilized anti-C2 surface at concentrations ranging from 0.078 to 40 μM, prepared in two-fold dilutions in running buffer. Association and dissociation phases were monitored for 180 and 600 seconds, respectively. […] Double referenced sensorgrams were fitted to either a 1:1 kinetic model (pH 6), including a term for mass transport limitation or to a 1:1 steady state model (pH 7.3) where responses at the end of the association phase were plotted against respective concentrations.
Binding to both human and cynomolgus monkey FcRn was tested using the SPR methods described above.

human C2b = molecular target: T3, human C2b (human, UniProt P06681 21-243); test: SPR, HBS-EP, pH 7.3, 37 C
T3 construct: the whole entry is named here
T3 sequence: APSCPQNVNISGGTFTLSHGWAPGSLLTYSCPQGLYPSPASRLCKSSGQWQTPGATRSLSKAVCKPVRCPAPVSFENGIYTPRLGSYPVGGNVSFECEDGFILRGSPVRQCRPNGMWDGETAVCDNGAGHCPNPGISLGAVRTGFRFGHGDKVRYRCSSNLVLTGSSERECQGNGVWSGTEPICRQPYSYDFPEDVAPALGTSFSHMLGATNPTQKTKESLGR
Description: as §1
(§4) Purified human C2 zymogen and human C2a were tested at concentrations ranging from 1.9 to 500 nM while human C2b was tested at concentrations ranging from 1.9 to 1000 nM. All experiments were performed in HBS-EP buffer supplemented with 0.1% BSA at 37° C. and pH 7.3. Each antibody was tested against human C2 zymogen and human C2a in duplicate and against C2b in quadruplicate. The flow rate was set to 30 μL/min. Each analyte concentration was tested in duplicate.

[7] = molecular target: T4, human C2a (activated human C2) (human, UniProt P06681 244-752); test: SPR, HBS-EP, pH 7.3, 37 C
T4 construct: the whole entry is named here; also called huC2a
T4 sequence: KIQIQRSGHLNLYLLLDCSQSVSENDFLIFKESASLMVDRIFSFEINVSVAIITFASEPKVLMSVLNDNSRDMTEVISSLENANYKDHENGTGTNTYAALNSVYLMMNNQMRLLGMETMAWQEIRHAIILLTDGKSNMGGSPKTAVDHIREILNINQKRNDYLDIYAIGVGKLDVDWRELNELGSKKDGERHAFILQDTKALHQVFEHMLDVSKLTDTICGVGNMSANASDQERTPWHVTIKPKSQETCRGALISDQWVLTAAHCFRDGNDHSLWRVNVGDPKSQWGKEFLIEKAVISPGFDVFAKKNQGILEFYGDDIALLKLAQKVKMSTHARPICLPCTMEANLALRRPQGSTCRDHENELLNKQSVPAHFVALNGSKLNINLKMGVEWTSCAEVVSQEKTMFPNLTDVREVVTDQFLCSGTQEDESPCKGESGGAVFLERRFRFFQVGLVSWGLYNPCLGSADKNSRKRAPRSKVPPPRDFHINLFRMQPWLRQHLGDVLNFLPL
Description: as §1, §4

[8] = molecular target: T1, human complement C2 zymogen; test: SPR steady state, captured antibody, analyte huC2 2000 mM Ca^2+ (so in the source), pH 6.0
Description: as §1, §2

[9] = molecular target: T1, human complement C2 zymogen; test: SPR kinetics, captured antibody, analyte huC2 0 mM Ca^2+, pH 7.3
Description: as §1, §2

[10] = molecular target: T1, human complement C2 zymogen; test: SPR steady state, captured antibody, analyte huC2 0 mM Ca^2+, pH 6.0
Description: as §1, §2

[11] = molecular target: T1, human complement C2 zymogen; test: SPR, human C2 zymogen analyte, HBS-EP, pH 7.3, 37 C
Description: as §1, §4

[12] = molecular target: T1, human complement C2 zymogen; test: SPR steady state, captured antibody, analyte huC2 20 mM Ca^2+ (so in the source), pH 6.0; remark: listed apart in the source
Description: as §1, §3, §2

[13] = molecular target: T1, human complement C2 zymogen; test: SPR kinetics, captured antibody, analyte huC2 (so in the source), pH 7.3
Description: as §1, §3, §2

[14] = molecular target: T1, human complement C2 zymogen; test: SPR steady state, captured antibody, analyte huC2 0 mM Ca^2+, pH 6.0; remark: listed apart in the source
Description: as §1, §3, §2

[15] = molecular target: T1, human complement C2 zymogen; test: SPR kinetics, captured antibody, analyte huC2 20 mM Ca^2+ (so in the source), pH 7.3; remark: listed apart in the source
Description: as §1, §3, §2

[16] = molecular target: T1, human complement C2 zymogen; test: SPR kinetics, captured antibody, analyte huC2 200 mM Ca^2+ (so in the source), pH 7.3; remark: listed apart in the source
Description: as §1, §3, §2

[17] = molecular target: T1, human complement C2 zymogen; test: SPR steady state, captured antibody, analyte huC2 2000 mM Ca^2+ (so in the source), pH 6.0; remark: listed apart in the source
Description: as §1, §3, §2

[18] = molecular target: T1, human complement C2 zymogen; test: SPR steady state, captured antibody, analyte huC2 200 mM Ca^2+ (so in the source), pH 6.0; remark: listed apart in the source
Description: as §1, §3, §2

[19] = molecular target: T1, human complement C2 zymogen; test: SPR kinetics, captured antibody, analyte huC2 2000 mM Ca^2+ (so in the source), pH 7.3; remark: listed apart in the source
Description: as §1, §3, §2

[20] = molecular target: T1, human complement C2 zymogen; test: SPR kinetics, captured antibody, analyte huC2 0 mM Ca^2+, pH 7.3; remark: listed apart in the source
Description: as §1, §3, §2

T2 sequence (Q8SPV9 24-297 limits assumed, chain 1 of 2): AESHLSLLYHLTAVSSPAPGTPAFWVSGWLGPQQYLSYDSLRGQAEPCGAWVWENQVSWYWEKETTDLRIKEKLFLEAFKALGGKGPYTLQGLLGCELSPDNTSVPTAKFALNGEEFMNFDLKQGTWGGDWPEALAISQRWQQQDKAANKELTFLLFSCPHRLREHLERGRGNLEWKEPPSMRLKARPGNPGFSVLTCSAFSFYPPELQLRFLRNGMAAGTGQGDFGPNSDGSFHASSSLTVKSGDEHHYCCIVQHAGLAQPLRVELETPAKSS
T2 sequence (Q8SPW0 21-119 limits assumed, chain 2 of 2): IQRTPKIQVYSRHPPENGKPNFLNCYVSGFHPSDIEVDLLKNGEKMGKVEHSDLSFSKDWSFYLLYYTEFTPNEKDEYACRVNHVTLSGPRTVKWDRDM

B1: RF16-226 (antibody, human IgG4 S228P, lambda)
heavy: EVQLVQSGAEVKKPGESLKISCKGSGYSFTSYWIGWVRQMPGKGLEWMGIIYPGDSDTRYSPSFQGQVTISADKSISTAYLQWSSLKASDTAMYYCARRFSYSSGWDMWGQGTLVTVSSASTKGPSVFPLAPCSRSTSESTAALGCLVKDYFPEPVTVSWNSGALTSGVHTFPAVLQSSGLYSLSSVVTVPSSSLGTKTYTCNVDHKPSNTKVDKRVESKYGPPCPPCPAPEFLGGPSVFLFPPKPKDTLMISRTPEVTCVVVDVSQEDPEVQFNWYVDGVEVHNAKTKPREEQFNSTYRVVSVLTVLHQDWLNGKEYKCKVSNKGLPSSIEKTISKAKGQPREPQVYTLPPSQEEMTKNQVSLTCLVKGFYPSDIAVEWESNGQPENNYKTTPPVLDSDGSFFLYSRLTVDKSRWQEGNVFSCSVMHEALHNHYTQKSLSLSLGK
light: SYELTQPPSVSVSPGQTARITCSGDALTSKYVAWYQQKSGLAPLLVIYEDTRRPSGIPAKFSGSSSGSVATLTISGAHGDDEADYYCYSTDASGHQRVFGGGTKLTVLSQPKAAPSVTLFPPSSEELQANKATLVCLISDFYPGAVTVAWKADGSPVKAGVETTKPSKQSNNKYAASSYLSLTPEQWKSHRSYSCQVTHEGSTVEKTVAPTECS
notes: Human antibody from a phage display library, unmodified Fc; also called WT
Kd [1]: 10.2 nM | koff [1]: 0.0057 s⁻¹ | kon [1]: 569000 M⁻¹ s⁻¹ | Kd [2]: 87.4 nM | Kd [3]: 9.3 nM | koff [3]: 0.0059 s⁻¹ | kon [3]: 631000 M⁻¹ s⁻¹ | Kd [4]: 11.1 nM | koff [4]: 0.0062 s⁻¹ | kon [4]: 561000 M⁻¹ s⁻¹ | Kd [5]: 94.2 nM | Kd [6]: 2100 nM | binding result (human C2b): no binding (tested: C2b tested up to 1000 nM) | binding result [7]: no binding (tested: C2a tested up to 500 nM) | Kd [8]: 111 nM | Kd [9]: 9.2 nM | koff [9]: 0.00499 s⁻¹ | kon [9]: 546000 M⁻¹ s⁻¹ | Kd [10]: 93.6 nM | Kd [11]: 8 nM

B2: RF16-226 YTE (Fc mutations M252Y, S254T, T256E) (antibody, human IgG4 S228P, lambda)
heavy: EVQLVQSGAEVKKPGESLKISCKGSGYSFTSYWIGWVRQMPGKGLEWMGIIYPGDSDTRYSPSFQGQVTISADKSISTAYLQWSSLKASDTAMYYCARRFSYSSGWDMWGQGTLVTVSSASTKGPSVFPLAPCSRSTSESTAALGCLVKDYFPEPVTVSWNSGALTSGVHTFPAVLQSSGLYSLSSVVTVPSSSLGTKTYTCNVDHKPSNTKVDKRVESKYGPPCPPCPAPEFLGGPSVFLFPPKPKDTLYITREPEVTCVVVDVSQEDPEVQFNWYVDGVEVHNAKTKPREEQFNSTYRVVSVLTVLHQDWLNGKEYKCKVSNKGLPSSIEKTISKAKGQPREPQVYTLPPSQEEMTKNQVSLTCLVKGFYPSDIAVEWESNGQPENNYKTTPPVLDSDGSFFLYSRLTVDKSRWQEGNVFSCSVMHEALHNHYTQKSLSLSLGK
light: SYELTQPPSVSVSPGQTARITCSGDALTSKYVAWYQQKSGLAPLLVIYEDTRRPSGIPAKFSGSSSGSVATLTISGAHGDDEADYYCYSTDASGHQRVFGGGTKLTVLSQPKAAPSVTLFPPSSEELQANKATLVCLISDFYPGAVTVAWKADGSPVKAGVETTKPSKQSNNKYAASSYLSLTPEQWKSHRSYSCQVTHEGSTVEKTVAPTECS
Kd [12]: 71 nM | kon [13]: 601000 M⁻¹ s⁻¹ | Kd [14]: 74.3 nM | Kd [15]: 7.9 nM | koff [15]: 0.00521 s⁻¹ | kon [15]: 657000 M⁻¹ s⁻¹ | Kd [16]: 8.3 nM | koff [16]: 0.00543 s⁻¹ | kon [16]: 653000 M⁻¹ s⁻¹ | Kd [17]: 92.8 nM | Kd [6]: 450 nM | Kd [18]: 74.6 nM | Kd [19]: 9.9 nM | koff [19]: 0.00592 s⁻¹ | Kd [20]: 8.5 nM | koff [20]: 0.00495 s⁻¹ | kon [20]: 584000 M⁻¹ s⁻¹

From US20220332804A1 (CSL INNOVATION, published 2022)
